This note sets out measurements from PMC8280106 (2021).

First the molecules themselves.
B1: extracellular domain of CD147 (CD147^ECD) [human] / Trefoil factor 3 (TFF3), recombinant mature form (residues 22-80) [human] (parent complex)
chain 1: AAGTVFTTVEDLGSKILLTCSLNDSATEVTGHRWLKGGVVLKEDALPGQKTEFKVDSDDQWGEYSCVFLPEPMGTANIQLHGPPRVKAVKSSEHINEGETAMLVCKSESVPPVTDWAWYKITDSEDKALMNGSESRFFVSSSQGRSELHIENLNMEADPGQYRCNGTSSKGSDQAIITLRVRSH
chain 2: EEYVGLSANQCAVPAKDRVDCGYPHVTPKECNNRGCCFDSRIPGVPWCFKPLQEAECTF

The variants in this experiment derive from B1. Kind of experiment: SPR (Biacore); value read at end of injection, ~120 s; concentrations not given; read off a plot. For orientation: Surface plasmon resonance follows binding to a sensor surface in real time, without labels.
With chain 1 R145A, the response was about 8.7 Ru.
To chain 1 R33A belongs about 2 Ru; to chain 1 G74A, about 4.3 Ru.
In the case of chain 1 V110A it was about 4.7 Ru; in that of chain 1 T100A, about 14 Ru.
